These results are taken from patent US20060211075.

First the molecules themselves.
T1: peptide 23, Dap-substituted pyrene derivative at Y+3 (not fully specified)
T1 chain: EEEIYGEXEA

B1: Csk (protein)
chain: MSAIQAAWPSGTECIAKYNFHGTAEQDLPFCKGDVLTIVAVTKDPNWYKAKNKVGREGIIPANYVQKREGVKAGTKLSLMPWFHGKITREQAERLLYPPETGLFLVRESTNYPGDYTLCVSCDGKVEHYRIMYHASKLSIDEEVYFENLMQLVEHYTSDADGLCTRLIKPKVMEGTVAAQDEFYRSGWALNMKELKLLQTIGKGEFGDVMLGDYRGNKVAVKCIKNDATAQAFLAEASVMTQLRHSNLVQLLGVIVEEKGGLYIVTEYMAKGSLVDYLRSRGRSVLGGDCLLKFSLDVCEAMEYLEGNNFVHRDLAARNVLVSEDNVAKVSDFGLTKEASSTQDTGKLPVKWTAPEALREKKFSTKSDVWSFGILLWEIYSFGRVPYPRIPLKDVVPRVEKGYKMDAPDGCPPAVYEVMKNCWHLDAAMRPSFLQLREQLEHIKTHELHL
B2: Flt3 (protein)
chain: HKYKKQFRYESQLQMVQVTGSSDNEYFYVDFREYEYDLKWEFPRENLEFGKVLGSGAFGKVMNATAYGISKTGVSIQVAVKMLKEKADSSEREALMSELKMMTQLGSHENIVNLLGACTLSGPIYLIFEYCCYGDLLNYLRSKREKFHRTWTEIFKEHNFSFYPTFQSHPNSSMPGSREVQIHPDSDQISGLHGNSFHSEDEIEYENQKRLEEEEDLNVLTFEDLLCFAYQVAKGMEFLEFKSCVHRDLAARNVLVTHGKVVKICDFGLARDIMSDSNYVVRGNARLPVKWMAPESLFEGIYTIKSDVWSYGILLWEIFSLGVNPYPGIPVDANFYKLIQNGFKMDQPFYATEEIYIIMQSCWAFDSRKRPSFPNLTSFLGCQLADAEEAMYQNVDGRVSECPHTYQNRRPFSREMDLGLLSPQAQVEDS
B3: LynB (protein)
chain: MGCIKSKGKDSLSDDGVDLKTQPVPESQLLPGQRFQTKDPEEQGDIVVALYPYDGIHPDDLSFKKGEKMKVLEEHGEWWKAKSLLTKKEGFIPSNYVAKLNTLETEEWFFKDITRKDAERQLLAPGNSAGAFLIRESETLKGSFSLSVRDFDPVHGDVIKHYKIRSLDNGGYYISPRITFPCISDMIKHYQKQADGLCRRLEKACISPKPQKPWDKDAWEIPRESIKLVKRLGAGQFGEVWMGYYNNSTKVAVKTLKPGTMSVQAFLEEANLMKTLQHDKLVRLYAVVTREEPIYIITEYMAKGSLLDFLKSDEGGKVLLPKLIDFSAQIAEGMAYIERKNYIHRDLRAANVLVSESLMCKIADFGLARVIEDNEYTAREGAKFPIKWTAPEAINFGCFTIKSDVWSFGILLYEIVTYGKIPYPGRTNADVMTALSQGYRMPRVENCPDELYDIMKMCWKEKAEERPTFDYLQSVLDDFYTATEGQYQQQP
B4: c-Met (protein)
chain: KKRKQIKDLGSELVRYDARVHTPHLDRLVSARSVSPTTEMVSNESVDYRATFPEDQFPNSSQNGSCRQVQYPLTDMSPILTSGDSDISSPLLQNTVHIDLSALNPELVQAVQHVVIGPSSLIVHFNEVIGRGHFGCVYHGTLLDNDGKKIHCAVKSLNRITDIGEVSQFLTEGIIMKDFSHPNVLSLLGICLRSEGSPLVVLPYMKHGDLRNFIRNETHNPTVKDLIGFGLQVAKGMKYLASKKFVHRDLAARNCMLDEKFTVKVADFGLARDMYDKEYYSVHNKTGAKLPVKWMALESLQTQKFTTKSDVWSFGVLLWELMTRGAPPYPDVNTFDITVYLLQGRRLLQPEYCPDPLYEVMLKCWHPKAEMRPSFSELVSRISAIFSTFIGEHYVHVNATYVNVKCVAPYPSLLSSEDNADDEVDTRPASFWETS
B5: Fes/Fps (protein)
chain: MGFSSELCSPQGHGVLQQMQEAELRLLEGMRKWMAQRVKSDREYAGLLHHMSLQDSGGQSRAISPDSPISQSWAEITSQTEGLSRLLRQHAEDLNSGPLSKLSLLIRERQQLRKTYSEQWQQLQQELTKTHSQDIEKLKSQYRALARDSAQAKRKYQEASKDKDRDKAKDKYVRSLWKLFAHHNRYVLGVRAAQLHHQHHHQLLLPGLLRSLQDLHEEMACILKEILQEYLEISSLVQDEVVAIHREMAAAAARIQPEAEYQGFLRQYGSAPDVPPCVTFDESLLEEGEPLEPGELQLNELTVESVQHTLTSVTDELAVATEMVFRRQEMVTQLQQELRNEEENTHPRERVQLLGKRQVLQEALQGLQVALCSQAKLQAQQELLQTKLEHLGPGEPPPVLLLQDDRHSTSSSEQEREGGRTPTLEILKSHISGIFRPKFSLPPPLQLIPEVQKPLHEQLWYHGAIPRAEVAELLVHSGDFLVRESQGKQEYVLSVLWDGLPRHFIIQSLDNLYRLEGEGFPSIPLLIDHLLSTQQPLTKKSGVVLHRAVPKDKWVLNHEDLVLGEQIGRGNFGEVFSGRLRADNTLVAVKSCRETLPPDLKAKFLQEARILKQYSHPNIVRLIGVCTQKQPIYIVMELVQGGDFLTFLRTEGARLRVKTLLQMVGDAAAGMEYLESKCCIHRDLAARNCLVTEKNVLKISDFGMSREEADGVYAASGGLRQVPVKWTAPEALNYGRYSSESDVWSFGILLWETFSLGASPYPNLSNQQTREFVEKGGRLPCPELCPDAVFRLMEQCWAYEPGQRPSFSTIYQELQSIRKRHR
B6: MLK1 (protein)
chain: PPIQLLEIDFAELTLEEIIGIGGFGKVYRAFWIGDEVAVKAARHDPDEDISQTIENVRQEAKLFAMLKHPNIIALRGVCLKEPNLCLVMEFARGGPLNRVLSGKRIPPDILVNWAVQIARGMNYLHDEAIVPIIHRDLKSSNILILQKVENGDLSNKILKITDFGLAREWHRTTKMSAAGTYAWMAPEVIRASMFSKGSDVWSYGVLLWELLTGEVPFRGIDGLAVAYGVAMNKLALPIPSTCPEPFAKLMEDCWNPDPHSRPSFTNILDQLTTIEESGFFE
B7: ZAP-70 (protein)
chain: MPDPAAHLPFFYGSISRAEAEEHLKLAGMADGLFLLRQCLRSLGGYVLSLVHDVRFHHFPIERQLNGTYAIAGGKAHCGPAELCEFYSRDPDGLPCNLRKPCNRPSGLEPQPGVFDCLRDAMVRDYVRQTWKLEGEALEQAIISQAPQVEKLIATTAHERMPWYHSSLTREEAERKLYSGAQTDGKFLLRPRKEQGTYALSLIYGKTVYHYLISQDKAGKYCIPEGTKFDTLWQLVEYLKLKADGLIYCLKEACPNSSASNASGAAAPTLPAHPSTLTHPQRRIDTLNSDGYTPEPARITSPDKPRPMPMDTSVYESPYSDPEELKDKKLFLKRDNLLIADIELGCGNFGSVRQGVYRMRKKQIDVAIKVLKQGTEKADTEEMMREAQIMHQLDNPYIVRLIGVCQAEALMLVMEMAGGGPLHKFLVGKREEIPVSNVAELLHQVSMGMKYLEEKNFVHRDLAARNVLLVNRHYAKISDFGLSKALGADDSYYTARSAGKWPLKWYAPECINFRKFSSRSDVWSYGVTMWEALSYGQKPYKKMKGPEVMAFIEQGKRMECPPECPPELYALMSDCWIYKWEDRPDFLTVEQRMRACYYSLASKVEGPPGSTQKAEAACA

The target of this data set is T1, peptide 23, Dap-substituted pyrene ….
By Km is commonly meant the concentration of substrate that gives half-maximal velocity. A word on the Vmax: it is the rate approached at saturating substrate. As to B1, the Km stood at 120 µM and the Vmax was 0.4 µmol/min/mg.

Turning to B2, the Km is 450 µM and the Vmax is 4.9 µmol/min/mg.

In the case of B3, the Km was 130 µM and the Vmax was 4 µmol/min/mg.

In the case of B4, the “phosphorylation of the peptide (fluorescence)” value (from here on “phosphorylation of the peptide”) was “unable to effectively catalyze the phosphorylation of either 23 or 25”.

With B5, the Michaelis constant (Km) is 60 µM and the Vmax was 3 µmol/min/mg.

As for B6, the “phosphorylation of the peptide” value is recorded as “unable to effectively catalyze the phosphorylation of either 23 or 25”.

B7: the “phosphorylation of the peptide” value was “unable to effectively catalyze the phosphorylation of either 23 or 25”.
